Numbered stars: 1 amine (or outer) side, 2 acyl side, 3 side chain; on linkers, the order of the positions; unused ones are H or OH. Square brackets hold non-standard residues; d marks the D form. Peptide text beside a SMILES is read from it. Haic = O=C1[C@@H](N[*:1])CCc2cccc3c2N1[C@H](C(=O)[*:2])C3; dTrp(2-Me) = Cc1[nH]c2ccccc2c1C[C@@H](N)C(=O)O; Mpa = O=C(O)CCS
Tests used:
[1] = Surface concentration of the peptide monolayer on Au by SPR; type: physicochemical; conditions: peptide SAM on Au SPR sensor; average of four replicates
Method: The surface coverage for each monolayer was measured according to the change in response of the SPR sensor in PBS for the bare Au surface relative to the peptide-coated Au surface. To measure the formation of the monolayers, each SPR sensor was mounted on a custom-made SPR instrument in the Kretschmann configuration based on a dove prism with wavelength interrogation as previously described (Bolduc et al., 2009, supra). An Ocean Optics™ USB4000 fibre optic spectrometer ranging from 550 to 850 nm was used to acquire the spectral information processed with Matlab to obtain the SPR sensorgram. A 25 μL Teflon fluidic cell positioned on top of the SPR sensors was used to inject the solutions required to functionalize with the recognition element and detect the analytes of interest. The SPR response was acquired at a frequency of 1 Hz. The s-polarized reference was acquired in PBS buffer before monitoring a 5 minute baseline in p-polarization. PBS was replaced with crude bovine serum (76 mg/mL protein) for 20 minutes and rinsed with PBS for 5 minutes to quantify the amount of non-specifically adsorbed proteins.
The formation of monolayers on Au was measured to ensure that the peptide monolayers are indeed binding to the SPR sensor. The surface concentration of the monolayer provides a measurement of the number of molecules per square cm (i.e. the density of the monolayer at the surface). The surface concentration (Γ) of peptide-like self-assembled monolayers (SAMs) was characterized with the measurement of the SPR response before the formation of the SAMs and after their formation on the Au surface of the SPR sensor. The difference of SPR wavelength (λSPR) between these two measurements increases with the increasing surface concentration of the SAMs following the equation proposed by Jung et al. (Jung, L. S. et al. Langmuir 1998, 14: 5636): Γ=ρ(−0.5/d)ln(1−(ΔλSPRm^−1(ηSAM−ηPBS)^−1)) (eq. 1)

[2] = Advancing contact angle in PBS on peptide SAMs; type: physicochemical; conditions: average of four replicates
[3] = Secondary structure of peptide SAM by FT-IR (mid-IR amide band); type: physicochemical; conditions: peptide SAM on gold-coated SPR sensor
Method: Microscope slides (BK7, 22×22 mm) were coated with a 3 nm titanium (Ti) adhesion layer and a 50 nm gold (Au) layer (purity 99.99%, ESPI metals) using a Cressington™ 308R sputter coater. These Au-coated SPR slides were immersed for at least 16 h in a 5 mM peptide solution in absolute ethanol to form a well-ordered monolayer (Masson, J. F. et al. Talanta 2004, 64: 716). Four replicates were prepared for each 3-MPA-peptide. The SAM formed on the SPR sensors was extensively rinsed with DMF and ethanol and dried. The mid-IR spectrum of the peptide monolayers immobilized on the SPR sensors was measured in attenuated total reflectance (ATR). Mid-IR spectra were recorded using a BRUKER TENSOR® 27 equipped with a Ge-ATR module.
The 3D structure of the peptides as SAMs is observed with the amide band visible in FT-IR. Peptides adopting an α-helix configuration are showing a strong amide band at 1645 cm^−1, while peptides auto-assembling in the β-sheet configuration leads to a shifted amide at 1675 cm^−1. Every peptide structure investigated in Table 1 adopted an α-helix configuration except for 3-MPA-HHHDD-OH, as shown in FIG. 3.
Peptides adopt secondary conformation, which plays a significant role in their biological activity. For peptides in solution, the secondary conformation is measured with CD, while peptides immobilized on a surface can be analyzed with mid-IR spectroscopy of the amide bands (Duevel, R. V., Corn, R. M., 1992. Analytical Chemistry 64(4), 337-342; Sakurai, T. et al., 2006. Journal of Peptide Science 12(6), 396-402). As listed in Table II, the secondary structure of most peptides adopted an α-helical conformation, with the exception of 3-MPA-DSDSD-OH, which adopted an extended conformation. As noted above, most peptides in the form of 3-MPA-peptide-OH adopt an α-helical conformation. Generally, mid-IR and CD agreed in the determination of the structures on surfaces and in solution, with the exception of one peptide. […] No relationship between structure and nonspecific adsorption could be established.

[4] = Capillary electrophoresis, global charge of the peptide; type: physicochemical
Method: Capillary electrophoresis was performed to determine if this difference of configuration is due to the global charge of the peptide.

[5] = target: recombinant soluble His-tagged CD36 (Homo sapiens, UniProt P16671); test: SPR screening of peptide ligands on a CD36 functionalized sensor; type: binding; conditions: increasing ligand concentrations
Chain of recombinant soluble His-tagged CD36 (P16671 30-439 limits assumed): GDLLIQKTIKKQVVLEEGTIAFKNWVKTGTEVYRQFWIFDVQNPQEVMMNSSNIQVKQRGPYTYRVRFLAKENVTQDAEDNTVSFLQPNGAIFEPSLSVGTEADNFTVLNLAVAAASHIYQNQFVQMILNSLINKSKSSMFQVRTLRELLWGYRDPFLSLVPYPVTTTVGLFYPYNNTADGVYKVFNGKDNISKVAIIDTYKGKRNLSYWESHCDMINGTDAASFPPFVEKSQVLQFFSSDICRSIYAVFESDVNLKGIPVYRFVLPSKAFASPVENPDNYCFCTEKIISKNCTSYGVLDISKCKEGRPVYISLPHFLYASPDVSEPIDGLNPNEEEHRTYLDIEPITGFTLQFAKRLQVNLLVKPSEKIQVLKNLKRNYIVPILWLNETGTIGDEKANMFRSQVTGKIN
Method: (§1) The SPR sensors for screening small peptidic ligand binding to a recombinant soluble His-tagged CD36 functionalized surfaces were prepared as described above. Five ligands were investigated: EP80317, CP-2B(i), CP-3(iv), CP-2A(v) and DBG-178(27) with concentrations ranging from 30 μM to 100 nM except for EP80317. The latter was used for optimizing the system with solutions ranging from 1 mM to 100 nM. EP80317 (HAIC-2MeDTrp-DLys-Trp-D-Phe-Lys-NH2) is a positive control of known activity, CP-2B(i) (His-DTrp-AzaLeu-Trp-DPhe-Ala-NH2) is a negative control, and CP-3(iv) (Ala-DTrp-Ala-AzaPhe-DPhe-Lys-NH2), CP-2A(v) (His-DTrp-AzaGly-Trp-DPhe-Lys-NH2) and DBG-178(27) (His-DTrp-Ala-azaTyr-DPhe-Lys-NH2) are novel CD36 ligands (see PCT publication No. WO 08/154,738). Another negative control was accomplished by exposing the His-tagged hDHFR functionalized surface to the same concentration of CD36 peptidic ligand. Two different approaches were used to remove the His-tagged CD36-Cu complex from the SPR sensors: concentrated histidine solution or saturated EDTA solution.
This is the case of the CD36-ligand system investigated herein, where the ligands are small peptides of about 800 to 1000 g/mol. Indeed, according to the aforementioned principle, the binding of the small peptides to the CD36 receptor should be close to the limit of detection, thus providing unreliable affinity measurements. […] This could be a consequence of a large conformational change of the CD36 receptor upon binding of specific ligands, thus providing the amplification sufficient for SPR signal detection.
The SPR setup was used for investigating the structure-activity relationships of various CD36 peptidic ligands. […] The measured KD's were compared to the EC50 values obtained in the activated src-kinase assay following CD36 receptor activation by the tested peptides. […] For the src-kinase cellular assay, the response sensitivity (EC50) for the tested peptides (in decreasing order) was as follows: EP80317>CP-2A(v)>CP-3(iv)>DBG-178(27)>CP-2B(i). With SPR, the binding affinity to CD36, in decreasing order, was: DBG-178(27)>CP-2A(v)>EP80317>CP-3(iv)>CP-2B(i). […] For CD36-peptidic ligands, a correlation appears between the affinity binding of the small peptides for CD36 as determined by SPR and their efficiency to produce a cellular response in the src kinase assay. Thus, SPR appears as a selective and sensitive method to screen for CD36 ligands.

His-tagged hDHFR = target: T1, His-tagged hDHFR (Homo sapiens, UniProt P00374); test: SPR blank assay on a hDHFR-His-Tag functionalized sensor; type: binding; conditions: same peptide concentrations
T1 construct: made in house
T1 sequence (P00374 1-187): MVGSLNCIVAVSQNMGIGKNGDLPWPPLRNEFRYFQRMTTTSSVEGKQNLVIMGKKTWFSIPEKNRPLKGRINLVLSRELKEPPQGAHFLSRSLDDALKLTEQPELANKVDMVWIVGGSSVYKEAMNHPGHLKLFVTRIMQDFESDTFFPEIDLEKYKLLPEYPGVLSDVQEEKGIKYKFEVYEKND
Method: as §1
This is the case of the CD36-ligand system investigated herein, where the ligands are small peptides of about 800 to 1000 g/mol. Indeed, according to the aforementioned principle, the binding of the small peptides to the CD36 receptor should be close to the limit of detection, thus providing unreliable affinity measurements. […]

[6] = target: T2, human dihydrofolate reductase (hDHFR) (Homo sapiens, UniProt P00374); test: Real-time UV/Vis monitoring of the enzymatic reaction of immobilized hDHFR; type: biochemical
T2 construct: made in house
T2 sequence (P00374 1-187): T1 sequence (P00374 1-187)
Method: The peptidomimetic monolayer binding His-tagged biomolecules was exposed for a period of 15 min to a 50 μg/mL PBS solution of His-tagged hDHFR, then rinsed with PBS. The SPR sensor with His-tagged hDHFR was placed in a UV/Vis cuvette, similar to a method developed by Knoll et al. (Xu et al., 2005. Journal of the American Chemical Society 127(38), 13084-13085). His-tagged hDHFR was obtained as previously reported (Volpato et al., 2007 Journal of Molecular Biology 373, 599-611). A negative control, consisting of the peptidomimetic-modified SPR sensor without hDHFR was exposed to buffer and rinsed to verify that the observed change in absorbance was due to immobilized His-tagged hDHFR and not to the surface itself. The enzymatic reaction catalyzed by hDHFR was monitored by UV/Vis spectrometry. The SPR sensors were immersed in a solution of 100 μM NADPH (cofactor) and 100 μM dihydrofolate (DHF, substrate) in 10 mM Tris buffer, pH=8.0, for 1 hour. The activity of the enzyme was measured by following the time course of the absorption (ΔA(t)) at λ=340 nm due to consumption of NADPH and DHF, by subtracting the blank signal (Ablank(t)) and the initial absorbance of the solution (A(O)). The activity was confirmed for each sample of His-tagged hDHFR on the SPR sensor. 1 U of enzyme activity corresponds to conversion of 1 μmol substrate to product per min. Absorption spectra were recorded with a Cary 100 Bio UV/Vis spectrometer equipped with a liquid temperature control system running at 35° C. to be in the optimal condition for the enzymatic reaction to take place. After monitoring the activity, the SPR sensors were rinsed with buffer, 18.2 MΩ water and the His-tagged hDHFR was removed from the surface with a 0.5 M imidazole solution for 10 minutes. […]
In contrast with those results, immobilizing His-tagged hDHFR on the peptidomimetic monolayer allowed to retain the activity of the enzyme. This is observed by a consumption of the reactants (NADPH and DHF), decreasing the absorbance measured at λ=340 nm (FIG. 3). According to the absorption coefficient (Δ∈=12.8 mM^−1 cm^−1), the measured slope (5.7*10 Abs/min) corresponded to an activity of 4.4±0.8*10^−5 U. The specific activity of His-tagged hDHFR previously determined in presence of saturating reactants was 8.5 U/mg. Thus, the activity measured on the surface corresponded to 5±0.9 ng (n=4) of fully active hDHFR. […] The fraction of active enzyme on the surface cannot be determined, because the activity measured for the enzyme immobilized on the surface of the SPR is a factor of the activity of the enzyme (as for the enzyme in solution) and the time required for the products to diffuse in the light beam of the UV-Vis (not a factor for the enzyme in solution). […]

[7] = target: T2, human dihydrofolate reductase (hDHFR); conditions: previously determined in presence of saturating reactants; cited from earlier work

Molecule: 3-MPA-HHHDD-OH ([Mpa]HHHDD-OH; SMILES O=C(O)C[C@H](NC(=O)[C@H](CC(=O)O)NC(=O)[C@H](Cc1c[nH]cn1)NC(=O)[C@H](Cc1c[nH]cn1)NC(=O)[C@H](Cc1c[nH]cn1)NC(=O)CCS)C(=O)O)
- Surface density ΔΓSAM [1]: 0.230 10^15 molecule/cm^2
- Contact angle in PBS θC_PBS [2]: 37.8 °
- Secondary Structure FT-IR (SAM) [3]: β-sheet
- Global charge of the peptide [4]: about −1

Molecule: Cc1[nH]c2ccccc2c1C[C@@H](NC(=O)[C@@H]1Cc2cccc3c2N1C(=O)[C@@H](N)CC3)C(=O)N[C@H](CCCCN)C(=O)N[C@@H](Cc1c[nH]c2ccccc12)C(=O)N[C@H](Cc1ccccc1)C(=O)N[C@@H](CCCCN)C(N)=O [EP80317, HAIC-2MeDTrp-DLys-Trp-D-Phe-Lys-NH2, reference compound] (Haic-[dTrp(2-Me)][dK]W[dF]K-NH2; N-terminus assumed)
- Change of SPR signal on CD36-His-tag-functionalized surface [5]: large shift in the signal
- Change of SPR signal on hDHFR-His-Tag functionalized sensor (His-tagged hDHFR): no significant change of signal

B1: His-tagged hDHFR: His-tagged human dihydrofolate reductase immobilized on the SPR sensor (protein)
chain: T1 sequence (P00374 1-187)
modifications: left off: small tags and cut ends
notes: His-tagged human dihydrofolate reductase immobilized on the SPR sensor
- Enzyme activity after covalent immobilization ([6]; covalently immobilized to 16-MHA using EDC/NHS chemistry): inactive
- Average variation of the absorbance value over 60 minutes ([6]; four sensors regenerated with imidazole, n=8): −0.034±0.006
- Enzyme activity of immobilized enzyme ([6]; immobilized on peptidomimetic monolayer, absorbance at 340 nm): 4.4±0.8*10^−5 U
- Amount of fully active enzyme corresponding to the measured surface activity ([6]; n=4): 5 ± 0.9 ng
- Specific activity [7]: 8.5 U/mg

— patent publication US8680233B2, “Heteropeptides useful for reducing nonspecific adsorption” (Valorisation-Recherche, Limited Partnership, priority 2009, dated 2014)
